Results from article PMC10018367.
Where two headings read alike, the source gives them in different places.

Legend:
Assay in all cases: EMSA
PARP1 [1] = biological target: T1, PARP1 (Homo sapiens, UniProt P09874 1-1014)
PARP1 [2] = biological target: T1, PARP1; remark: listed apart in the source
PARP1 [3] = biological target: T1, PARP1; remark: listed apart in the source
PARP1 [4] = biological target: T1, PARP1; remark: listed apart in the source

T1 sequence (P09874 whole entry): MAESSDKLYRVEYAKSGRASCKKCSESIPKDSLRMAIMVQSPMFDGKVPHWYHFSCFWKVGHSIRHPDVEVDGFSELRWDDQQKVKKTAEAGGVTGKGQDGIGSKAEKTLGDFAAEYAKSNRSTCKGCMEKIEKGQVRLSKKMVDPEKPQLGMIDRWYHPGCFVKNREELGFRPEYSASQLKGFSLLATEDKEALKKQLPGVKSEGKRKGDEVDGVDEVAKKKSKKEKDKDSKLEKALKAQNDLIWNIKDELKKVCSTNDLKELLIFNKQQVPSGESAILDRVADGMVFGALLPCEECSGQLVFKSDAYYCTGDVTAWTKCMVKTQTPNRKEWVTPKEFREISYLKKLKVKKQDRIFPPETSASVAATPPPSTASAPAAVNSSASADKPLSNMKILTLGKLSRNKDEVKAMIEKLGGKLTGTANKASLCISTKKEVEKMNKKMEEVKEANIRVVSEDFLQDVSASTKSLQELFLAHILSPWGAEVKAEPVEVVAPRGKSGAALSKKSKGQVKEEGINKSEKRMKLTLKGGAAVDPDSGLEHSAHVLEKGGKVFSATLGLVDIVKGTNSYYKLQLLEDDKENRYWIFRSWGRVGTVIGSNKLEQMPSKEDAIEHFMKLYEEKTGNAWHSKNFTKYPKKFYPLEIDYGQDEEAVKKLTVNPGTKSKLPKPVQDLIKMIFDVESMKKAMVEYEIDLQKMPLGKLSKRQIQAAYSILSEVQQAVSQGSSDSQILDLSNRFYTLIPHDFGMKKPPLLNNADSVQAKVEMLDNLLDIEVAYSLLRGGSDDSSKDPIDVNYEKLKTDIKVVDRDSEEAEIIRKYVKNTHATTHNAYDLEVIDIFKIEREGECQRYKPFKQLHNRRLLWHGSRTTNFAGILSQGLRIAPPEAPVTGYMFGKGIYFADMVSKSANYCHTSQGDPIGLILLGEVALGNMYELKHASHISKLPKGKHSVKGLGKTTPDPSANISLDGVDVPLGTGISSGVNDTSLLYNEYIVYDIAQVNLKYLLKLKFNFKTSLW

AAAGAUGUCCUAGCAAGGCAC (ssRNA) [ssRNA JYM3704]
binding result (PARP1 [1]): no binding

B1: ssDNA JYM3702 (ssDNA)
DNA: GGGTGAACCTGCAGGTGGGCGGCTGCTCATCGTAGGTTAGTTGGTAGAATTCGGCAGCGTC
binding result (PARP1 [2]): binds

B2: D-loop (JYM3702 + JYM3703 + JYM3705) (structured_DNA)
DNA 1: B1 DNA
DNA 2: GACGCTGCCGAATTCTACCAGTGCCTTGCTAGGACATCTTTGCCCACCTGCAGGTTCACCC
DNA 3: AAAGATGTCCTAGCAAGGCAC
binding result (PARP1 [3]): binds

B3: R-loop (JYM3702 + JYM3703 + JYM3704) (mixed)
DNA 1: B1 DNA
DNA 2: B2 DNA 2
RNA: AAAGAUGUCCUAGCAAGGCAC
modifications: RNA strand 3
binding result (PARP1 [4]): binds
